Test results: patent publication US20240366722A1 (ACCELERON PHARMA, published 2024)

Tests used:
Experiment in all cases: Biacore, steady-state affinity fit
activin A = molecular target: T1, activin A (UniProt P08476 311-426)
T1 construct: also called ActA
T1 sequence (looked up): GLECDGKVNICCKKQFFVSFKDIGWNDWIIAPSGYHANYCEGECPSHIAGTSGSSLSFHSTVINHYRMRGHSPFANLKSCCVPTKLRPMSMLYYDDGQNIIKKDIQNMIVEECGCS
Protocol: (§1) The affinity of ActRIIB variants and other ActRIIB-hFc proteins for several ligands was evaluated in vitro with a Biacore™ instrument. Kd values were obtained by steady-state affinity fit due to the very rapid association and dissociation of the complex, which prevented accurate determination of kₒₙ and koff.

activin B = molecular target: T2, activin B (UniProt P09529 293-407)
T2 sequence (looked up): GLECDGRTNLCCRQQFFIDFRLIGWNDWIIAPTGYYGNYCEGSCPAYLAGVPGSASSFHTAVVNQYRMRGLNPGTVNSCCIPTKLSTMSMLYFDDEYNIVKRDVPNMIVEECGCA
Protocol: as §1

GDF11 = molecular target: T3, GDF11 (UniProt O95390 299-407)
T3 sequence (looked up): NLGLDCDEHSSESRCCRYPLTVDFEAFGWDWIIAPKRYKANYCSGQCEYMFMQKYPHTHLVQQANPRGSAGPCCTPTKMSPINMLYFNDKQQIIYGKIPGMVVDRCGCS
Protocol: as §1

Kd (activin A): 22.9 nM
Kd (activin B): 0.621 nM
Kd (GDF11): 0.074 nM
B1: ActRIIB(L79D 25-131)-hFc (Fc fusion)
chain: ETRECIYYNANWELERTNQSGLERCEGEQDKRLHCYASWRNSSGTIELVKKGCWDDDFNCYDRQECVATEENPQVYFCCCEGNFCNERFTHLPEAGGPEVTYEPPPTGGGTHTCPPCPAPELLGGPSVFLFPPKPKDTLMISRTPRVTCVVVDVSHEDPEVKFNWYVDGVEVHNAKTKPREEQYNSTYRVVSVLTVLHQDWLNGKEYKCKVSNKALPAPIEKTISKAKGQPREPQVYTLPPSREEMTKNQVSLTCLVKGFYPSDIAVEWESNGQPENNYKTTPPVLDSDGSFFLYSKLTVDKSRWQQGNVFSCSVMHEALHNHYTQKSLSLSPGK
notes: Cell purified form without leader
